{"source": "paper PMC7435202", "about": "(Nature Communications, 2020)", "proteins": {"B1": {"name": "native, full-length VZV glycoprotein B (gB) purified from VZV-infected MeWo cells (natural protein, UniProt Q4JR05 72-931, looked up)", "chain": "VSPSSFYESLQVEPTQSEDITRSAHLGDGDEIREAIHKSQDAETKPTFYVCPPPTGSTIVRLEPPRTCPDYHLGKNFTEGIAVVYKENIAAYKFKATVYYKDVIVSTAWAGSSYTQITNRYADRVPIPVSEITDTIDKFGKCSSKATYVRNNHKVEAFNEDKNPQDMPLIASKYNSVGSKAWHTTNDTYMVAGTPGTYRTGTSVNCIIEEVEARSIFPYDSFGLSTGDIIYMSPFFGLRDGAYREHSNYAMDRFHQFEGYRQRDLDTRALLEPAARNFLVTPHLTVGWNWKPKRTEVCSLVKWREVEDVVRDEYAHNFRFTMKTLSTTFISETNEFNLNQIHLSQCVKEEARAIINRIYTTRYNSSHVRTGDIQTYLARGGFVVVFQPLLSNSLARLYLQELVRENTNHSPQKHPTRNTRSRRSVPVELRANRTITTTSSVEFAMLQFTYDHIQEHVNEMLARISSSWCQLQNRERALWSGLFPINPSALASTILDQRVKARILGDVISVSNCPELGSDTRIILQNSMRVSGSTTRCYSRPLISIVSLNGSGTVEGQLGTDNELIMSRDLLEPCVANHKRYFLFGHHYVYYEDYRYVREIAVHDVGMISTYVDLNLTLLKDREFMPLQVYTRDELRDTGLLDYSEIQRRNQMHSLRFYDIDKVVQYDSGTAIMQGMAQFFQGLGTAGQAVGHVVLGATGALLSTVHGFTTFLSNPFGALAVGLLVLAGLVAAFFAYRYVLKLKTSPMKALYPLTTKGLKQLPEGMDPFAEKPNATDTPIEEIGDSQNTEPSVNSGFDPDKFREAQEMIKYMTLVSAAERQESKARKKNKTSALLTSRLTGLALRNRRGYSRVRTENVTGV", "notes": "Varicella-zoster virus glycoprotein B, 931 amino acids, ORF31, strain pOka; cleaved by furin: both uncleaved (130 kDa) and cleaved (65 kDa) gB are present; also called native gB; full-length gB"}}, "target": "the molecule itself", "assay": "cryo-EM structure; native full-length gB with 93k Fab fragments added in molar excess, overnight at +4 °C; Amphipol 8-35, TBS pH7.4, Superose-6; single particle, C3 symmetry imposed", "data": [{"protein": "B1", "values": [{"measurement": "stoichiometry N", "value": 3}]}]}
